Test results from publication PMC6238066, “Versatile Fungal Polyphenol Oxidase with Chlorophenol Bioremediation Potential: Characterization and Protein Engineering” (Applied and Environmental Microbiology, 2018).

How the values were obtained:
[1] = test system: Oc1ccc(Cl)cc1O; assay: spectrophotometric oxidation assay, nonlinear regression; assay type: biochemical, Thermothelomyces thermophilus; conditions: 0.1 M sodium phosphate pH 7, 40°C, 440 nm, 0 to 5 mM substrate
Text: (§1) spectrophotometric oxidation assay, nonlinear regression on TtPPO

[2] = substrate: COc1ccccc1O; assay: purified protein; conditions: 0.1 M sodium phosphate pH 7, 40°C, 0 to 15 mM substrate
[3] = substrate: Oc1cc(O)c2c(c1)O[C@H](c1ccc(O)c(O)c1)[C@@H](O)C2; assay: spectrophotometric oxidation assay, nonlinear regression; assay type: biochemical, Thermothelomyces thermophilus; conditions: 0.1 M sodium phosphate pH 7, 40°C, 440 nm, 0 to 10 mM substrate (Km lies above tested range)
Text: as §1

[4] = substrate: Oc1ccccc1O; assay: as above; assay type: biochemical, Thermothelomyces thermophilus; conditions: 0.1 M sodium phosphate pH 7, 40°C, 0 to 60 mM substrate
Text: as §1

[5] = substrate: Oc1ccc(O)cc1; assay: as above; assay type: biochemical, Thermothelomyces thermophilus; conditions: 0.1 M sodium phosphate pH 7, 40°C, 480 nm, 0 to 70 mM substrate
Text: as §1

[6] = substrate: COc1cc(C=O)ccc1O; assay: as above; assay type: biochemical, Thermothelomyces thermophilus; conditions: 0.1 M sodium phosphate pH 7, 40°C, 0 to 5 mM substrate
Text: as §1

[7] = substrate: N[C@@H](Cc1ccc(O)c(O)c1)C(=O)O; assay: as above; assay type: biochemical, Thermothelomyces thermophilus; conditions: 0.1 M sodium phosphate pH 7, 40°C, 475 nm, 0 to 7 mM substrate
Text: as §1

For “TtPPO (Thermothelomyces thermophilus ATCC 42464)”, the Km [1] was 1.6 (0.1) mM, the kcat [1] was 5.69 s⁻¹ and the kcat/Km [1] was 3490 M⁻¹ s⁻¹.

B1: TtPPO (Thermothelomyces thermophilus ATCC 42464) (protein)
chain: RCSSDAPPPAPVGDDLTEPKELTDLFEKAKKAVIDRLHEDEKALRARGEAPRCTADKLIFRREYGSLSKDERLAYVNAVKCLQSKPPRTPASVAPGARSRFDDFVVVHIQQTLDIHYSGIFQAWHRWFVYQYEKALRDECGYTGYQPYWDWPKYASAPQDSPLFNGDPYSLGGNGEYVPHDGPVIVPPEGVSGGNISLPAGVGGGFVRTGPFANMTVNLGPVGGLADTAPGPQGGLGYNPRGLKRDLGGAMNTRYANYTTVLRLLTQPDVDAFRTVSEGVPYTVEIGPHGGIHYTIGGDPGGDLFTSPGDPAFWVHHAQMDRVWATWQALGLLPPADGGDPDPARRYTDLGKGDYAHRTWQNSPPSPFAELSDVIDMGYAAPSTTIGAVMSTTEGELCYFYL
notes: secreted by Pichia pastoris X-33, glycosylated; IMAC
With B1 the Km [2] was 4.2 (0.6) mM, the kcat [2] was 2.91 s⁻¹ and the kcat/Km [2] was 690 M⁻¹ s⁻¹. For the same molecule, the Km [3] was 31.0 (12.9) mM, the kcat [3] was 40.5 s⁻¹ and the kcat/Km [3] was 1300 M⁻¹ s⁻¹. For the same molecule, the Km [4] was 27.0 (2.8) mM, the kcat [4] was 2.19 s⁻¹ and the kcat/Km [4] was 81.7 M⁻¹ s⁻¹. For the same molecule, the Km [5] was 54.4 (5.5) mM, the kcat [5] was 1.69 s⁻¹ and the kcat/Km [5] was 31.7 M⁻¹ s⁻¹. For the same molecule, the Km [6] was 2.0 (0.1) mM, the kcat [6] was 1.92 s⁻¹ and the kcat/Km [6] was 987 M⁻¹ s⁻¹. For the same molecule, the Km [7] was 2.2 (0.6) mM, the kcat [7] was 0.108 s⁻¹ and the kcat/Km [7] was 50 M⁻¹ s⁻¹.
